Data as given in the nanobody polyreactivity screen of Harvey et al. (2022).

assay: yeast display, Sf9 membrane polyspecificity reagent, FACS + sequencing; frameworks hold sequencing errors
Procedure, shortened: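 Synthetic nanobody libraries on Saccharomyces cerevisiae BJ5465 were galactose-induced for 36–48 hours, stained 1 hour at 4 °C with 10% biotinylated, detergent-solubilized Sf9 membrane reagent and enriched on streptavidin microbeads. FACS then separated cells into low and high (top ~1%) gates by anti-HA (expression) and streptavidin (reagent binding) fluorescence. Genes were colony-PCR amplified, MiSeq 2 × 250 sequenced and CDR-length filtered. A clone's polyreactivity label is that of its gate of origin.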

Sequence | polyreactivity (PSR sort gate)
QVQLVESGGGLVQAGGSLRLSCAASGGIFARNVMGWYRQAPGKERELVAAISGSGGSTYYADSVKGRFTISRDNAKKTVYLQMNSLKPEDTAVYYCAARTPGVSVYKDGYWGQGTQVTVSS | low polyreactivity
QVQLVESGGGLVHAGGSLRLSCAASGSTYYGNAMGWYIQAPRKERELVAAINRGGSTYYADSVKGRFTISRDNAKNTVYLQMKSLKPEDTAVYYCAADYEYLPKTRDGYYWGQGTQVTVSS | low polyreactivity
QVQLVESGGGLVQAGGSLRLSCAASGRIFRLYAMGWSRQAPGKERELVAAISSSGGDTYYADSVKGRFTISRDNAKNTVYLQMNSLKPEDTAVYYCNARKRYANVHYNYWGQGTQVTVSS | high polyreactivity
QVQLVESGGGLVQAGGSLRLSCAASGRISGWYAMGWYRQAPGKERELVASISSSGGSTYYADSVEGRFTISRDNAKNTVYFQMNSLKPEDTAVYYCAVRRYNWSFYRGYDYWGQGTQVTVSS | high polyreactivity
QVQLVESGGGLVQAGGSLRLSCAASGFTSCDNDMGWYRQAPGKERELVAAISRGGSTNYADSVKGRFTISRDNAKNTVYLQMNSLKPEDTAVYYCATAAVTPVWYDYWGKGTQVTVSS | low polyreactivity
QVQLVESGGGLDQAGGSLRLSCAASGIIFWEYAMGWYRQAPGKERELVAAINARGTRTYYADSVKGRFTISRDNAKNTVYLQMNSLKPEDTAVYYCAADRYGWTRYDSWGQGTQVTVSS | high polyreactivity
QVQLVESGGGLVQAVGSLRLSCAASGSTFGEYAMGWYRQAPGKERELVAVITSDDNTYYADSVKGRFTISRDNAKNTVYLQMNSLKPEDTAVYYCATDDRRRFKYWGQGTQVTVSS | high polyreactivity
QVQLVESGGGLVQAGGSLRLSCAASGRIIRGNAMGWYRQAPGKERELVAAISVRGGNTRYADSVKGRFTISRDNAKNSVYLQMNSLKPEDTAVYFCKKRSYLPEMEYWGQGSQVTVSS | low polyreactivity
QVQLVESGGGLVQAGGSLRLSCAASGFIFYRYAMGWYRQAPGKEREFVAVISRSGDRTNYADSVKGRFTISRDNAKNTVYLQMNSLKPEDTAVYYCNTDSRSAHGYWGQGTQVTVSS | high polyreactivity
QVQHVESGGGLVQAGGSLRLSCAASGRIFAYNAMGWYRQAPGKERELVADISSGGNTYYADSVKGRFTISRDNAKNTVYLQMNSLKPEDTAVYYCAADIALYTHYHRIFDYWGQGTQVTVSS | low polyreactivity
QVQLVESGGGLVQAGGSLRLSCAASGIIFGTYAMGWYRQAPGKERELVASITNGGNTNYADSVKGRFTISRDNAKNTVYLQMNSLKPEDTAVYYCAKDVPYWRPVVRYDYWGQGTQVTVSS | low polyreactivity
QVQLVESGGGLVQAGASLRLSCAASGRIFNGYAMGWYRQAPWKERELVATIRYRGDNTYYADSVKGRFTISRDNAKNTVYLQMNSLKPEDTAVYYCNARVWYTSTSSWAKRYNYWGQGTQVTVSS | high polyreactivity
QVQLVESGGGLVQAGGSLRLSCAASGRSFSYNAMGWYRQAPGKERELVASISGNGGRTYYADSVKGRFTISRDNAKNTVYLQMNSLKPEDTAVYYCAARYYSWGGVQYDYWGQGTQVTVSS | high polyreactivity
QVQLVESGGGLVQAGGSLRLSCAASGSTFLPYVMGWYRQATGKERELVAAISRSGGRTYYADSVKGRFTISRDKAKNTVYLQMNRLKPEDTAVYYCNAVQRFYADYQPFAYWGQGTQLTVSS | high polyreactivity
QVQLVESGGGLVQAGGSLRLSCAASGYIFLANAMGWYRQAPGKERELVARIDTRGDSTYYADSVKGRFTISRDTAKNTVYLQMNSLKPEDTAVYYCAADQQTWWQYSLINEYDYWGQGTQLTVSS | low polyreactivity
QVQLVESGGGLVQAGGSLRLSCAASGSILGYYAMGWYRQAPGKERELVAAISSGGSTNYADSVKGRFTISRDNAKNTVYLQMNSLKPEDTAVYYCAAGVTWPYRYVWYDYWGQGTQVTVSS | low polyreactivity

Sequence | polyreactivity (PSR sort gate)
QVQLVESGGGLVQAGGSLRLSCAASGFTFQDNAMGWYRHAPGKERELVASITGSGGSTYYADSVKGRFTISRDNAKNTVYLQMNSLKPEDTAVYYCAAETYTRSALVLYGSREMEYWGQGTQVTVSS | low polyreactivity
QVQLVESGGGLVQAGGSLRLSCAASGRTFYTNVMGWYRQAPGKERELVAAITTSSSRTYYADSVKGRFTISRDNAKNTVYLQMNSLKPEDTAVYYCAARIHGSWSFDYWGQGTQVTVSS | low polyreactivity
QDQLVESGGGLVQAGGSLRLSCAASGGTFWAYAMGWYRQAPGKERENVAAIRRSGRTYYADSVKGRITISRDNAKNTVYLQMNRLKPEDTAVDYCAKYGPTPGTLRDDYWGQGTQVTVSS | high polyreactivity
QVQLVESGGGLVQAGGSLRLSCAASGFILDTYGMGWYRQAPGKERELVAAISQSDVSTYYADSVKGRFTISRDNAKNTVYLQMNSLKPEDTAVYYCNAGAGKRGYDYWGQGTQVTVSS | low polyreactivity
QVQLVESGGGLVQAGGSLRLSCAASGSTFYYYALGWYRQAPGKERELVATISWSGDSTYADSVKGRFTISRDNAKNTVYLQMNSLKPEDTAVYYCATSGDWWGFRYDYWGQGTQVTVSS | low polyreactivity
QVQLVESGGGLVQAGGSLRLSCAASGFIFRAYAMGWYRQAPGKERELVAAISYSGGSTYYADSVKGRFTISRDNAKNTVYLQMNSLKPEDTAVYYCAALTIRVGSLGRDYWGQGTQVTVSS | low polyreactivity
QVQLVESAGGLVQAGGSLRLSCAASGLIFEYNAMGWYRQAPGKERELVAAITTNGGSTYYADSVKGRFTISRDNAKNTVYLQINSLKPEDTAVYYCAALGLHQVIEYDYWGQGTQVTVSS | low polyreactivity
QVQLVESGGGLVQAGGSLRLSCAASGSIFVYYGMGWYRQAPGKERELFAAISSGGSTHYADSVKGRFTISRDNAKNTVYLQMNSLKPEDTAVYYCAADRFFWLRSYPRYYYWGQGTQVTVSS | low polyreactivity
QVLLQESGGGLVQAGGSLRLSCAASGNIFSAGGMGWYRQAPVNERELVAGIGTGTSTNYADSVKGRFTISRDNANNTVYLQMNSLKPEDTAVYYCAAAYYSGLSHWYWGQGTQVTVSS | low polyreactivity
QVQLVESGGGLVQAGGILLLSCAASRRIFGVYAMGWYIQAPGKERELVATIRSSGTRKNYADSLKGRFTISRDNAKNTVYLQLNSLKPEDTAVYYCAAGGRPYKLDFTRSDYWGHGTQVTVSS | low polyreactivity
QVQLVESGGGLVQAGGSLRLSCAASGRIIWGYAMGWYRQAPGKERELVAGITYSGGSTYYADSVKGRFTISRDNAKNTVYLQMNSLKPEDTAVYYCAAAKSYRSGSWYEYWGQGTQVTVSS | high polyreactivity
QVQLVESGGGLVQAGGSLRLSCAASGSIFRGNAMGWYRQAPGKERELVASISKGGGSTDYADSVKGRFIISRDNAKNTVYLQMNSLKPEDNAVYYCNKDYDRPDYYYWGQGTQVTVSS | low polyreactivity
QVQLVESRGGLVQAGGSLRLSCAASGSIFWLYAMGLYRQAPGKERELVAAIDSGDSTKYADSVKGRFTISRDNAKNTVYLQMNSLKREDTAVYYCNASRRYHVLAPYDYWGQGTQVTVSS | low polyreactivity
QVQLVESGGGLVQAGGSLRLSCAASGSIFYYYAMGWYRQAPGKEREFVATIRRSGASTYYADSVKGRFTISRDNAKNTVYLQMNSLKPEDTAVYYCNAASARRPIYEAARWSKYDYWGQGTQVTVSS | low polyreactivity
QVQLVESGGGLVQAGGSLRLSCAASGIIFGEYAMGWYRQAPGKERELVAAISGSGSRTYYADSVKGRFTISRDNAKNTVYLQMNSLKPEDTAVYYCAVKGGGTRYGYWGQGTQVTVSS | high polyreactivity
QVQLVESGGGLVQAGGSLRLSCAASGSIFSSNAMGWYRQAPGKERELVAAISSSGGSTYYADSVKGRFTISRDNAKNTVYLQKNSLKPEDTAVYYCATGKQVYGHYYWGQGTQVTVSS | low polyreactivity
